Experimental data reported in PMC9029856, “Impact of Different [Tc(N)PNP]-Scaffolds on the Biological Properties of the Small cRGDfK Peptide: Synthesis, In Vitro and In Vivo Evaluations” (Molecules, 2022).
“And” between values parts separate entries of the source, which are not always exact repeats. Equal entries are not always repeated. Where two headings read alike, the source gives them in different places.

Columns and labels:
[1] = test system: M21 (αvβ3-positive) and M21L (αvβ3-negative) melanoma tumors; assay type: in vivo, NSG mice; conditions: 120 min p.i.; for M21L tumor uptake: integrin-negative M21L control tumor; for M21 tumor uptake: integrin-positive M21 xenograft; for Blood / Heart / Intestine / Kidneys / Liver / Lungs / Muscle / Spleen / Stomach: tumor-bearing mice
Method: In vivo tumor uptake. The in vivo integrin targeting properties of the [^99mTcN(PNP)]-labeled peptide were evaluated in M21 (integrin-positive) and M21L (integrin-negative) melanoma-bearing mice by comparing the percentage of tumor uptake of the three compounds in tumors and the respective target-to-non-target ratios. Biodistribution data outlined some differences in organ uptake compared with those attained in rats at the same injection time because the rate of metabolism is different in each animal species. […] The high renal uptake of radiotracers is partially due to their rate of excretion as well as to a specific uptake by integrins expression in the kidneys; for ^99mTc3, the M21-to-kidney ratio was 1.37.
Human melanoma M21(αvβ3-positive) were injected subcutaneously (s.c. 1 × 10^6 cells) in the right flank of six week-old male NSG mice (Charles River Laboratories). As a negative control, M21L (αvβ3-negative) were inoculated s.c. (1 × 10^6 cells) in the left flank of the same mice. Fifteen days after the inoculation, when the tumors are palpable (5–3 mm), the mice were injected in the tail vein with the selected radiolabeled peptide (20 µCi/100 µL of PBS). A group of six animals was sacrificed at 120 min p.i. by CO2 inhalation. A sample of blood was collected and tumors and normal tissues of interest were dissected, rinsed to remove the excess of blood, weighted, and their radioactivity measured using a NaI counter. Results are expressed as the percentage of injected activity per gram (% IA/g) and tumor-to-organ ratios were calculated.

[2] = test system: receptor-negative human melanoma M21L cells; experiment: Cell uptake and internalization in M21L cells; assay type: cell-based; conditions: negative M21L cell line, 37 °C, 90 min
Method: Cell uptake and internalization studies were performed on receptor-positive human melanoma M21 (expressing high levels of αvβ3 integrin and moderate level of integrin αvβ5), human breast cancer MCF7 (exclusively expressing αvβ5), and receptor-negative human melanoma M21L cell lines. The expression of αvβ3 and αvβ5 by cells was already evaluated by flow cytometry (Table 2). The stability of each radiolabeled peptide in the culture media before and after cell exposure was assessed.
Experiments were conducted in suspension at 37 °C. The working conditions were set up to avoid cell damage and/or death. With the use of these information, the cells were pre-incubated in sterile glass tubes at 37 °C for 10 min, in the presence or not of cRGDfK pentapeptide (50 µL; 1.65 mM).
Then, 1 mL of the cell suspension (1 × 10^6 cells/mL) was incubated with intermittent agitation with 10 µL (10 µCi) of ^99mTc1–3. At 90 min, the cells were moved in Eppendorf microcentrifuge tubes (1.5 mL) and the incubation was interrupted by centrifugation (3000 rpm for 5 min at 10 °C). The supernatant (S1) was separated from the pellet. The cell pellet was treated 10 min at room temperature with saline acetate buffer (CH3COOH 0.2M/NaCl 0.5 M) to remove the membrane-bound compound. After centrifugation (3000 rpm for 10 min at 10 °C), the supernatant (S2) was separated from the pellet (P1), and each fraction was collected, placed in a separated counting tube, and the activity was measured using a NaI counter (Cobra II, Packard) to estimate both the cell uptake and the internalized fraction.
The uptake of complexes was expressed as percentage cell uptake of the total activity on 10^6 cells (% cell uptake/10^6 cells).
All assessments were conducted in triplicate for three experiments.

[3] = parameters: species or system Sprague Dawley rats; conditions: rat, in vivo, iv, 15 uCi/100 uL
Method: Pharmacokinetics and metabolism.
Female Sprague Dawley rats weighing 180–200 g were anesthetized with an intraperitoneal injection of a mixture of Zoletil (40 mg/kg) and xylazine (2 mg/kg). A jugular vein was surgically exposed, and the solution containing the radiolabeled peptide was injected (15 µCi/100 µL). The rats (n = 3) were scarified by cervical dislocation at different times after injection. The blood was withdrawn from the heart with a syringe immediately after death and quantified. Organs were excised, rinsed in saline, weighed, and the activity was counted in a NaI counter. The results were expressed as the percentage of injected activity per gram of tissue (%IA/g) to be able to compare our results with those reported in the literature.

serum proteins = assay type: in vitro ADME
Method: Thus, to have some predictive indications of the metabolic outcome of our compounds, the binding to serum proteins and the enzymatic biotransformation of ^99mTc1–3 in blood and tissue homogenates were assessed in vitro by incubating the purified compounds at 37 °C in human and mouse sera as well as in murine liver and kidney homogenates.
Protein Binding. The affinity of the ^99mTc(N) complexes toward the serum proteins was evaluated by chromatographic methods.
Upon incubation, 25 µL of each sample was withdrawn and loaded on a pre-spun (735× g for 2 min) Sephadex G-50 mini-column. The column was centrifuged at 735 × g for 1 min. The collected eluate and the column were counted in a NaI-scintillation counter. The protein-bound complex was calculated as the percentage of the total activity.

[Tc(N)(H2NS-cRGDfK)(PNP43)]^+ [^99mTc2]
M21/M21L ratio [1]: 2.57 | M21/blood ratio [1]: 11.26 | M21/kidneys ratio [1]: 0.32 | M21/liver ratio [1]: 0.44 | M21/lung ratio [1]: 1.04 | M21/muscle ratio [1]: 3.54 | M21L tumor uptake [1]: 0.42 ± 0.05 %IA/g | M21 tumor uptake [1]: 1.1 ± 0.2 %IA/g and 1.08 ± 0.24 %IA/g | Blood [1]: 0.12 ± 0.03 %IA/g | Heart [1]: 0.48 ± 0.07 %IA/g | Intestine [1]: 2.45 ± 0.29 %IA/g | Kidneys [1]: 3.38 ± 0.36 %IA/g | Liver [1]: 2.43 ± 0.23 %IA/g | Lungs [1]: 1.04 ± 0.08 %IA/g | Muscle [1]: 0.31 ± 0.05 %IA/g | Spleen [1]: 1.26 ± 0.04 %IA/g | Stomach [1]: 1.02 ± 0.16 %IA | cell uptake (sum of surface bound and internalized radioactivity) [2]: 1.65 ± 0.40 % cell uptake/10^6 cells | Blood ([3]; 0.5 h): 0.65 ± 0.04 %IA/g | Heart ([3]; 0.5 h): 0.30 ± 0.01 %IA/g | Intestine ([3]; 0.5 h): 1.19 ± 0.14 %IA/g | Kidneys ([3]; 0.5 h): 6.77 ± 0.86 %IA/g | Liver ([3]; 0.5 h): 0.90 ± 0.13 %IA/g | Lungs ([3]; 0.5 h): 0.82 ± 0.09 %IA/g | Muscle ([3]; 0.5 h): 0.22 ± 0.03 %IA/g | Spleen ([3]; 0.5 h): 0.47 ± 0.02 %IA/g | Stomach ([3]; 0.5 h): 0.82 ± 0.07 %IA | Urine ([3]; 0.5 h): 17.7 ± 3.6 %IA | Blood ([3]; 1 h): 0.35 ± 0.07 %IA/g | Heart ([3]; 1 h): 0.20 ± 0.04 %IA/g | Intestine ([3]; 1 h): 1.69 ± 0.17 %IA/g | Kidneys ([3]; 1 h): 6.20 ± 0.68 %IA/g | Liver ([3]; 1 h): 0.73 ± 0.01 %IA/g | Lungs ([3]; 1 h): 0.56 ± 0.10 %IA/g | Muscle ([3]; 1 h): 0.14 ± 0.03 %IA/g | Spleen ([3]; 1 h): 0.40 ± 0.05 %IA/g | Stomach ([3]; 1 h): 0.64 ± 0.08 %IA | Urine ([3]; 1 h): 28.5 ± 4.6 %IA | Blood ([3]; 2 h): 0.19 ± 0.04 %IA/g | Heart ([3]; 2 h): 0.15 ± 0.06 %IA/g | Intestine ([3]; 2 h): 1.94 ± 0.25 %IA/g | Kidneys ([3]; 2 h): 5.51 ± 0.42 %IA/g | Liver ([3]; 2 h): 0.57 ± 0.03 %IA/g | Lungs ([3]; 2 h): 0.42 ± 0.02 %IA/g | Muscle ([3]; 2 h): 0.12 ± 0.01 %IA/g | Spleen ([3]; 2 h): 0.38 ± 0.04 %IA/g | Stomach ([3]; 2 h): 0.51 ± 0.08 %IA | Urine ([3]; 2 h): 41.5 ± 4.5 %IA | Blood ([3]; 4 h): 0.11 ± 0.02 %IA/g | Heart ([3]; 4 h): 0.12 ± 0.01 %IA/g | Intestine ([3]; 4 h): 1.90 ± 0.19 %IA/g | Kidneys ([3]; 4 h): 4.27 ± 0.31 %IA/g | Liver ([3]; 4 h): 0.52 ± 0.07 %IA/g | Lungs ([3]; 4 h): 0.34 ± 0.04 %IA/g | Muscle ([3]; 4 h): 0.09 ± 0.00 %IA/g | Spleen ([3]; 4 h): 0.34 ± 0.07 %IA/g | Stomach ([3]; 4 h): 0.41 ± 0.09 %IA | Urine ([3]; 4 h): 43.5 ± 3.4 %IA | % Protein Binding (serum proteins): 13.63 ± 2.95%

[Tc(N)(H2NS-cRGDfK)(PNP3OH)]^+ [^99mTc3]
M21/M21L ratio [1]: 5.60 | M21/blood ratio [1]: 73.42 | M21/kidneys ratio [1]: 1.23 | M21/liver ratio [1]: 1.11 | M21/lung ratio [1]: 2.98 | M21/muscle ratio [1]: 16.72 | M21L tumor uptake [1]: 0.70 ± 0.16 %IA/g | M21 tumor uptake [1]: 3.9 ± 0.7 %IA/g and 3.92 ± 0.69 %IA/g | Blood [1]: 0.05 ± 0.01 %IA/g | Heart [1]: 0.44 ± 0.09 %IA/g | Intestine [1]: 3.09 ± 0.62 %IA/g | Kidneys [1]: 3.34 ± 0.18 %IA/g | Liver [1]: 3.22 ± 0.24 %IA/g | Lungs [1]: 1.32 ± 0.20 %IA/g | Muscle [1]: 0.23 ± 0.03 %IA/g | Spleen [1]: 1.43 ± 0.19 %IA/g | Stomach [1]: 1.05 ± 0.14 %IA | cell uptake (sum of surface bound and internalized radioactivity) [2]: 1.73 ± 0.27 % cell uptake/10^6 cells | Blood ([3]; 0.5 h): 0.46 ± 0.07 %IA/g | Heart ([3]; 0.5 h): 0.25 ± 0.06 %IA/g | Intestine ([3]; 0.5 h): 1.29 ± 0.13 %IA/g | Kidneys ([3]; 0.5 h): 5.22 ± 0.44 %IA/g | Liver ([3]; 0.5 h): 0.90 ± 0.09 %IA/g | Lungs ([3]; 0.5 h): 0.62 ± 0.08 %IA/g | Muscle ([3]; 0.5 h): 0.17 ± 0.01 %IA/g | Spleen ([3]; 0.5 h): 0.43 ± 0.05 %IA/g | Stomach ([3]; 0.5 h): 0.72 ± 0.04 %IA | Urine ([3]; 0.5 h): 27.8 ± 5.6 %IA | Blood ([3]; 1 h): 0.25 ± 0.03 %IA/g | Heart ([3]; 1 h): 0.15 ± 0.00 %IA/g | Intestine ([3]; 1 h): 1.95 ± 0.17 %IA/g | Kidneys ([3]; 1 h): 4.83 ± 0.35 %IA/g | Liver ([3]; 1 h): 0.80 ± 0.06 %IA/g | Lungs ([3]; 1 h): 0.49 ± 0.01 %IA/g | Muscle ([3]; 1 h): 0.13 ± 0.01 %IA/g | Spleen ([3]; 1 h): 0.39 ± 0.04 %IA/g | Stomach ([3]; 1 h): 0.64 ± 0.08 %IA | Urine ([3]; 1 h): 31.2 ± 3.0 %IA | Blood ([3]; 2 h): 0.16 ± 0.01 %IA/g | Heart ([3]; 2 h): 0.13 ± 0.02 %IA/g | Intestine ([3]; 2 h): 3.76 ± 0.27 %IA/g | Kidneys ([3]; 2 h): 4.44 ± 0.32 %IA/g | Liver ([3]; 2 h): 0.75 ± 0.09 %IA/g | Lungs ([3]; 2 h): 0.37 ± 0.06 %IA/g | Muscle ([3]; 2 h): 0.12 ± 0.00 %IA/g | Spleen ([3]; 2 h): 0.36 ± 0.02 %IA/g | Stomach ([3]; 2 h): 0.57 ± 0.03 %IA | Urine ([3]; 2 h): 44.2 ± 10.9 %IA | Blood ([3]; 4 h): 0.09 ± 0.01 %IA/g | Heart ([3]; 4 h): 0.12 ± 0.03 %IA/g | Intestine ([3]; 4 h): 4.17 ± 0.59 %IA/g | Kidneys ([3]; 4 h): 4.22 ± 0.45 %IA/g | Liver ([3]; 4 h): 0.67 ± 0.04 %IA/g | Lungs ([3]; 4 h): 0.32 ± 0.02 %IA/g | Muscle ([3]; 4 h): 0.08 ± 0.00 %IA/g | Spleen ([3]; 4 h): 0.34 ± 0.04 %IA/g | Stomach ([3]; 4 h): 0.46 ± 0.04 %IA | Urine ([3]; 4 h): 30.2 ± 9.45 %IA | % Protein Binding (serum proteins): 7.91 ± 2.01%
